Experiment [1] deals with platelet-derived growth factor-BB (PDGF-BB) (human) (UniProt P01127). Briefly: equilibrium binding.
Experiment [2] shares this target. Put plainly: surface plasmon resonance. For orientation: In SPR one partner is held on a chip, and binding of the other changes the refractive index at the surface.
Experiment [3] has as its target transforming growth factor-β1 (TGF-β1) (human) (UniProt P01137). Briefly: equilibrium or kinetic binding, not said which.
For experiment [4] the target is unchanged. Put plainly: equilibrium binding; equilibrium binding.
Target sequence in this assay (P01137 279-390 limits assumed): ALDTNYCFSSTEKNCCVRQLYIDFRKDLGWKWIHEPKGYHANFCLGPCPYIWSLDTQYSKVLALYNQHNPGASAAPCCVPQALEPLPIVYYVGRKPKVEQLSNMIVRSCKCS
In experiment [5] the target is platelet-derived growth factor-BB (PDGF-BB) (human) (UniProt P01127). Put plainly: surface plasmon resonance, kinetic.
Target sequence in this assay (P01127 82-190 limits assumed): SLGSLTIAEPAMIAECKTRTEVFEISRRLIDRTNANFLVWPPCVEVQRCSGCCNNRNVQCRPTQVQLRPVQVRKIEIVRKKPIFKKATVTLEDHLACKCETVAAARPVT
Experiment [6] concerns the target transforming growth factor-β1 (TGF-β1) (human) (UniProt P01137). Put plainly: surface plasmon resonance, kinetic; kinetic, plasmon surface resonance.
Target sequence in this assay (P01137 279-390 limits assumed): as the sequence (P01137 279-390 limits assumed) above
In experiment [7] the target is platelet-derived growth factor-BB (PDGF-BB) (human) (UniProt P01127). Briefly: method not restated in the sentence (paragraph: plasmon resonance modulation).
Target sequence in this assay (P01127 82-190 limits assumed): as the sequence (P01127 82-190 limits assumed) above
Experiment [8] addresses transforming growth factor-β1 (TGF-β1) (human) (UniProt P01137). The experiment is described as above.
Target sequence in this assay (P01137 279-390 limits assumed): as the sequence (P01137 279-390 limits assumed) above
Experiment [9] has as its target vascular endothelial growth factor A (VEGF-A) (human) (UniProt P15692). Briefly: plasmon resonance modulation; plasmon resonance.
Experiment [10] concerns the target platelet-derived growth factor-BB (PDGF-BB) (human) (UniProt P01127). Briefly: plasmon resonance modulation; plasmon resonance.
Target sequence in this assay (P01127 82-190 limits assumed): as the sequence (P01127 82-190 limits assumed) above
Experiment [11] addresses transforming growth factor-β1 (TGF-β1) (human) (UniProt P01137). Put plainly: plasmon resonance modulation; plasmon resonance.
Target sequence in this assay (P01137 279-390 limits assumed): as the sequence (P01137 279-390 limits assumed) above
In experiment [12] the target is vascular endothelial growth factor A (VEGF-A) (human) (UniProt P15692). Briefly: method not restated in the sentence.
Sequence of vascular endothelial growth factor A (VEGF-A) (human) (P15692 other isoform, or with tags, fused parts or gaps limits assumed): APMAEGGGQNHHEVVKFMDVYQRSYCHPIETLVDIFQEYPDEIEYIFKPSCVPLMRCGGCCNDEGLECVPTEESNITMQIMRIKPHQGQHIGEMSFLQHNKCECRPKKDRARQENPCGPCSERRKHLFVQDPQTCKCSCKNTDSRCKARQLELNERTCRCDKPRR
Experiment [13] has as its target platelet-derived growth factor-BB (PDGF-BB) (human) (UniProt P01127). Briefly: method not restated in the sentence.
Target sequence in this assay (P01127 82-190 limits assumed): as the sequence (P01127 82-190 limits assumed) above
Experiment [14] has as its target transforming growth factor-β1 (TGF-β1) (human) (UniProt P01137). Put plainly: method not restated in the sentence.
Target sequence in this assay (P01137 279-390 limits assumed): as the sequence (P01137 279-390 limits assumed) above
Experiment [15] has as its target platelet-derived growth factor-BB (PDGF-BB) (human) (UniProt P01127). Briefly: radiolabeled GF binding to intact FN, non linear regression; radiolabeled GF, intact FN.
Experiment [16] addresses transforming growth factor-β1 (TGF-β1) (human) (UniProt P01137). The experiment is described as above.
The target in experiment [17] is platelet-derived growth factor-BB (PDGF-BB) (human) (UniProt P01127). Put plainly: equilibrium binding to FN adsorbed to a surface or coupled to agarose beads.
Experiment [18] concerns the target transforming growth factor-β1 (TGF-β1) (human) (UniProt P01137). Described as above.

What is called Kd is the free concentration of one partner at which half of the binding sites on the other are occupied at equilibrium, for simple one-to-one binding. Read a high Kd as a looser complex.

Sequence of FNIII1-7 (P02751 other isoform, or with tags, fused parts or gaps limits assumed): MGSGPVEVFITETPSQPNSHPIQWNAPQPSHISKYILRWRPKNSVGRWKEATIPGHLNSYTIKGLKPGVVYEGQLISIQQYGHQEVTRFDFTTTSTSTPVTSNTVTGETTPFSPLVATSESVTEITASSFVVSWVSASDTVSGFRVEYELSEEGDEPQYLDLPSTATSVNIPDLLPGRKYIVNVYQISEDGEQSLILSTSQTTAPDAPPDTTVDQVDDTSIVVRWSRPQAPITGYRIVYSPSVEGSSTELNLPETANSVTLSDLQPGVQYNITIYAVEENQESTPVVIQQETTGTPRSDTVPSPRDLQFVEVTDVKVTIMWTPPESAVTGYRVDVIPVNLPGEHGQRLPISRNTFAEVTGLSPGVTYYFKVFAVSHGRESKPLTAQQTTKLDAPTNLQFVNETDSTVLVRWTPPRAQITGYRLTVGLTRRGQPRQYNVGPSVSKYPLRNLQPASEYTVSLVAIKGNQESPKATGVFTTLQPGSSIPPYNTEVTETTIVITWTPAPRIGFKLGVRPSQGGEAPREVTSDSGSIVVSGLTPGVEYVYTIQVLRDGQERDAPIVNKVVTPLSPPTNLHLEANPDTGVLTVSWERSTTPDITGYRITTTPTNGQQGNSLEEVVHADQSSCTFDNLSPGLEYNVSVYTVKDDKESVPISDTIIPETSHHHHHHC
Sequence of IIICS, variably-spliced domain of fibronectin (P02751 other isoform, or with tags, fused parts or gaps limits assumed): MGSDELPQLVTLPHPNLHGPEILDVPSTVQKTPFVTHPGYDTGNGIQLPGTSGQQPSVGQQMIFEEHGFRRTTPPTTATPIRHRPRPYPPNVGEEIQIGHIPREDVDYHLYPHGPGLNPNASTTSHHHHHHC
Sequence of FNIII12-15 (H), heparinII-binding domain of fibronectin (P02751 other isoform, or with tags, fused parts or gaps limits assumed): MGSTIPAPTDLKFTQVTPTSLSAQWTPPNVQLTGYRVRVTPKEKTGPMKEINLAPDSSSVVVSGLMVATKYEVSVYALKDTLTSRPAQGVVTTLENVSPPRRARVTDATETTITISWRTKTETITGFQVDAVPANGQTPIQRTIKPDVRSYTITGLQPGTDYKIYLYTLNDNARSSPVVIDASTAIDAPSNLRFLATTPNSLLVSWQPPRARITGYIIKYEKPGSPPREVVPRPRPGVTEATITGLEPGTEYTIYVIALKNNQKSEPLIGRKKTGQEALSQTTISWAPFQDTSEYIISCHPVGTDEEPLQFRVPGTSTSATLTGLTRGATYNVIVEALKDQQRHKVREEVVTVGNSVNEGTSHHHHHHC
Sequence of FNIII12-14 (P02751 other isoform, or with tags, fused parts or gaps limits assumed): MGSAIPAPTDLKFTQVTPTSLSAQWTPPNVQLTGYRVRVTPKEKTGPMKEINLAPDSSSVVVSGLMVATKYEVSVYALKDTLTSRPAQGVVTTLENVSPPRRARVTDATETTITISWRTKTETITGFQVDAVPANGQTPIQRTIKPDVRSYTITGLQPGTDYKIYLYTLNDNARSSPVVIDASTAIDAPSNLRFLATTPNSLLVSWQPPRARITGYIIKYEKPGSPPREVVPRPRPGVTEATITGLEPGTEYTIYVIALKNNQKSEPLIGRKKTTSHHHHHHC
Sequence of FNIII12-V15 (HV), composite heparinII-binding and variably-spliced IIICS domains of fibronectin (P02751 other isoform, or with tags, fused parts or gaps limits assumed): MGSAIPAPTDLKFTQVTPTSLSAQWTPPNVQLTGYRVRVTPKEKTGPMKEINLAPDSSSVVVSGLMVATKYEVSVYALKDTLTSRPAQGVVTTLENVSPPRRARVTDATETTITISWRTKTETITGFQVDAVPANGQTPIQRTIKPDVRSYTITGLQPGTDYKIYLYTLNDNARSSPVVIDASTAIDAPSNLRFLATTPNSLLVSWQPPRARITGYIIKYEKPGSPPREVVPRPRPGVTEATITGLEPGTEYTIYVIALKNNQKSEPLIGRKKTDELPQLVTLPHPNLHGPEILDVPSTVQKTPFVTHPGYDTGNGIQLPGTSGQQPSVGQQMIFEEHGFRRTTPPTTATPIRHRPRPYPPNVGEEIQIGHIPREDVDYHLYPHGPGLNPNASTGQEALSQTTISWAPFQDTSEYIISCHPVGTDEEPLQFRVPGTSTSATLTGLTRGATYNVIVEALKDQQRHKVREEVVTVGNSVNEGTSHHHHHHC
Sequence of FNIII12-13 (P02751 other isoform, or with tags, fused parts or gaps limits assumed): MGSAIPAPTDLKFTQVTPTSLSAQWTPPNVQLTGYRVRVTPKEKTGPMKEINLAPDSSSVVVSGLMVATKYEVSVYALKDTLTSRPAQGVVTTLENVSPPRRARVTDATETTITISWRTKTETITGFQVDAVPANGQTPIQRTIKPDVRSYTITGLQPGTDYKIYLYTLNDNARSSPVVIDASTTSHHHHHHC

As to FNIII1 (from UniProt P02751 610-702), the Kd in experiment [1] worked out at 32 nM; in [2] it was 370 nM; in experiment [3], 6.2 nM.
Turning to FNIII1-2 (from UniProt P02751 610-812), the dissociation constant (Kd) in experiment [1] came out at 37 nM; in experiment [2], 9.1 nM.
As to FNIII1-7 (from UniProt P02751 610-1266), the Kd was determined as 75 nM in experiment [1], 17 nM in [4], 100 nM in [5] and 18 nM in [6].
Take “FNIII12-13 (from UniProt P02751 1812-1992)”: the Kd in experiment [1] was found to be 75 nM. In other words, the double-digit nanomolar range.
Consider “FNIII12-14 (from UniProt P02751 1812-2082)”, for which the Kd in [7] amounted to 55 nM; in experiment [8] it was 7.6 nM; in experiment [1] it was 35 nM; in experiment [3], 7.6 nM.
Regarding “FNIII12-15 (H), heparinII-binding domain of fibronectin (from UniProt P02751 1631-1987)”, the Kd in [7] was 6.8 nM; in experiment [8], 16 nM; in experiment [1], 6.8 nM; in [3], 16 nM.
As for “FNIII12-V15 (HV), composite heparinII-binding and variably-spliced IIICS domains of fibronectin (from UniProt P02751 1812-2288)”, the Kd in [1] amounted to 21 nM; in [4], 97 nM; in experiment [5] it was 17 nM; in experiment [9], 0.6 nM; in experiment [10], 17 nM; in experiment [11], 2.5 nM. In experiment [6], this substance returned a Kd of 25 nM.
With “IIICS, variably-spliced domain of fibronectin (from UniProt P02751 2083-2202)”, the Kd in [1] was 350 nM; in experiment [12], 100 nM; in [13], 100 nM; in experiment [14], 100 nM; in experiment [3] it was 74 nM.
As to “intact human plasma fibronectin (FN) (from UniProt P02751 32-2477)”, the Kd worked out at 49 nM in [15], 53 nM in [16], 49 nM in [17] and 53 nM in experiment [18].

The values above are taken from patent US8759300.
